PMC5787828, “NAC transcription factor JUNGBRUNNEN1 enhances drought tolerance in tomato”

T1: AtJUB1-GST (Arabidopsis thaliana, UniProt Q9SK55 1-275)
T1 sequence: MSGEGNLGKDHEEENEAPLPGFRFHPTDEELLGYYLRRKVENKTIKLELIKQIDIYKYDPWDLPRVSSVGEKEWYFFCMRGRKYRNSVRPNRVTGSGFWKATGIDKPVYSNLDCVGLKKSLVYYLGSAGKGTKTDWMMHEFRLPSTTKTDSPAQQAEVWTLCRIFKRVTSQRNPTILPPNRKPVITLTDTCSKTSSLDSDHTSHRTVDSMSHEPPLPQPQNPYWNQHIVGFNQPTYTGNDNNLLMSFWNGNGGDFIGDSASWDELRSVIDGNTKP

B1: SlDELLA promoter probe (dsDNA)
DNA 1: ATTTTTCACACTTGACCACCACCACTTTTACTTGCCCTACTAAATCTAAA
DNA 2: TTTAGATTTAGTAGGGCAAGTAAAAGTGGTGGTGGTCAAGTGTGAAAAAT
B2: SlDREB2 promoter probe (dsDNA)
DNA 1: TATATGGCTGTGCTTGATCGAACTTCAAATATGATGTTACCTATGGATTA
DNA 2: TAATCCATAGGTAACATCATATTTGAAGTTCGATCAAGCACAGCCATATA
B3: SlDREB1 promoter probe (dsDNA)
DNA 1: TTATTTAGTCGAGTCGTGGCTGTTGGGATGCCGCGGAATTCAGCACGTG
DNA 2: CACGTGCTGAATTCCGCGGCATCCCAACAGCCACGACTCGACTAAATAA

The binders below were run against T1, AtJUB1-GST (assay: EMSA; abolished by 100x unlabelled competitor; Odyssey Infrared EMSA kit (LI-COR); buffer, salt, pH and temperature not stated). Details: protein: recombinant; tags: GST (pDEST24 fusion); chain copies: 2; label: 5'-DY682; blunt.

Binding result, binds:
B1
B2
B3
